In paper PMC10397247:
Values belong to the binder of their own block, whether it stands above or below them.

Tests used:
Test in all cases: two-hybrid library CCNG1;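 also: natural log of median RNA to DNA barcode read ratio; higher means stronger binding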
4H454-bN = biological target: T1, 4H454-bN
T1 chain: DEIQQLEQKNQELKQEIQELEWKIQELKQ

4H883-bN = biological target: T2, 4H883-bN
T2 chain: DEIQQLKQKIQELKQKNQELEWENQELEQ

4H72-bN = biological target: T3, 4H72-bN
T3 chain: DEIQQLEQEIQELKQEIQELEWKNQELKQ

4H338-bN = biological target: T4, 4H338-bN
T4 chain: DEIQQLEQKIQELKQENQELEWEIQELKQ

4H3782-bN = biological target: T5, 4H3782-bN
T5 chain: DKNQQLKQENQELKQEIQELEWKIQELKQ

4H953-bN = biological target: T6, 4H953-bN
T6 chain: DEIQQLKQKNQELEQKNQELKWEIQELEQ

4H607-bN = biological target: T7, 4H607-bN
T7 chain: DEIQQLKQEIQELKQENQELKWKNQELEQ

4H967-bN = biological target: T8, 4H967-bN
T8 chain: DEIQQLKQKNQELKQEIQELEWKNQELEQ

4H687-bN = biological target: T9, 4H687-bN
T9 chain: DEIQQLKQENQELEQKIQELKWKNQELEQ

4H3354-bN = biological target: T10, 4H3354-bN
T10 chain: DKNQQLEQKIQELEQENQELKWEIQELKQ

4H754-bN = biological target: T11, 4H754-bN
T11 chain: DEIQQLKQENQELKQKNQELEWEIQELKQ

4H717-bN = biological target: T12, 4H717-bN
T12 chain: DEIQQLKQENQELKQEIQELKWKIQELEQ

4H918-bN = biological target: T13, 4H918-bN
T13 chain: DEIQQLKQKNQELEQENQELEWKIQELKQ

4H797-bN = biological target: T14, 4H797-bN
T14 chain: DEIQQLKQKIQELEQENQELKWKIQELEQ

4H331-bN = biological target: T15, 4H331-bN
T15 chain: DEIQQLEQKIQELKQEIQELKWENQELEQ

4H3855-bN = biological target: T16, 4H3855-bN
T16 chain: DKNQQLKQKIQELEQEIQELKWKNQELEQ

4H568-bN = biological target: T17, 4H568-bN
T17 chain: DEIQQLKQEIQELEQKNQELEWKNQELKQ

P9SHb = biological target: T18, P9SHb
T18 chain: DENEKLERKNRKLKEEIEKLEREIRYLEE

4H3185-bN = biological target: T19, 4H3185-bN
T19 chain: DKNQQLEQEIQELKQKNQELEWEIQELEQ

4H908-bN = biological target: T20, 4H908-bN
T20 chain: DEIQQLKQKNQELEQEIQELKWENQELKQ

4H3427-bN = biological target: T21, 4H3427-bN
T21 chain: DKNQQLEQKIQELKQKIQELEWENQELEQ

P4mS = biological target: T22, P4mS
T22 chain: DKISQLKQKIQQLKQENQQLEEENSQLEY

4H4001-bN = biological target: T23, 4H4001-bN
T23 chain: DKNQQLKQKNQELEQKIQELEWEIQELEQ

4H2915-bH = biological target: T24, 4H2915-bH
T24 chain: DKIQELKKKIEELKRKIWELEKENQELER

4H2839-bH = biological target: T25, 4H2839-bH
T25 chain: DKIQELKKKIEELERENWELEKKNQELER

4H2717-bH = biological target: T26, 4H2717-bH
T26 chain: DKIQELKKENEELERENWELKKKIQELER

4H348-bH = biological target: T27, 4H348-bH
T27 chain: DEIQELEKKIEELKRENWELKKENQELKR

4H2223-bH = biological target: T28, 4H2223-bH
T28 chain: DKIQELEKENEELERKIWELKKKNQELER

4H2438-bH = biological target: T29, 4H2438-bH
T29 chain: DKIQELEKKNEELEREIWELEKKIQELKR

4H477-bH = biological target: T30, 4H477-bH
T30 chain: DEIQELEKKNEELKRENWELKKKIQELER

4H492-bH = biological target: T31, 4H492-bH
T31 chain: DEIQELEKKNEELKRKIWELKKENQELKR

4H319-bH = biological target: T32, 4H319-bH
T32 chain: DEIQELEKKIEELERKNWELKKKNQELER

4H2588-bH = biological target: T33, 4H2588-bH
T33 chain: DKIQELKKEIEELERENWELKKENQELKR

4H2473-bH = biological target: T34, 4H2473-bH
T34 chain: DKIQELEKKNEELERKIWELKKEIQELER

4H741-bH = biological target: T35, 4H741-bH
T35 chain: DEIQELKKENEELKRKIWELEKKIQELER

4H2503-bH = biological target: T36, 4H2503-bH
T36 chain: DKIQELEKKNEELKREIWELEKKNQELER

4H40-bH = biological target: T37, 4H40-bH
T37 chain: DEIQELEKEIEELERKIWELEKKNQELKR

4H2692-bH = biological target: T38, 4H2692-bH
T38 chain: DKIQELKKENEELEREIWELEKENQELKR

4H3057-bH = biological target: T39, 4H3057-bH
T39 chain: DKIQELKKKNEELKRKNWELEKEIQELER

4H3277-bH = biological target: T40, 4H3277-bH
T40 chain: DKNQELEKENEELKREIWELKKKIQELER

4H1899-bN = biological target: T41, 4H1899-bN
T41 chain: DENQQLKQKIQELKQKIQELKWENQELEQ

4H3926-bN = biological target: T42, 4H3926-bN
T42 chain: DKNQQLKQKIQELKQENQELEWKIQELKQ

4H3298-bN = biological target: T43, 4H3298-bN
T43 chain: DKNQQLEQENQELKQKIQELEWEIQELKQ

4H3817-bN = biological target: T44, 4H3817-bN
T44 chain: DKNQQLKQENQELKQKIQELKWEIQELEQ

4H1373-bN = biological target: T45, 4H1373-bN
T45 chain: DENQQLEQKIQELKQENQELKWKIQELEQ

4H850-bN = biological target: T46, 4H850-bN
T46 chain: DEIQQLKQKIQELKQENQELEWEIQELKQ

4H1710-bN = biological target: T47, 4H1710-bN
T47 chain: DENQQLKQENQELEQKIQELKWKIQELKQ

4H3974-bN = biological target: T48, 4H3974-bN
T48 chain: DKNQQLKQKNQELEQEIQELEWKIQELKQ

4H591-bN = biological target: T49, 4H591-bN
T49 chain: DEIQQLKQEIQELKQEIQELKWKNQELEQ

4H1544-bN = biological target: T50, 4H1544-bN
T50 chain: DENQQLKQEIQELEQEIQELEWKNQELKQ

4H906-bN = biological target: T51, 4H906-bN
T51 chain: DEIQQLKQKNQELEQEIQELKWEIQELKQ

4H3628-bN = biological target: T52, 4H3628-bN
T52 chain: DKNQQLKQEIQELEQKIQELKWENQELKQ

4H1985-bN = biological target: T53, 4H1985-bN
T53 chain: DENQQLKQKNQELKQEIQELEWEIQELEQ

4H338-bH = biological target: T54, 4H338-bH
T54 chain: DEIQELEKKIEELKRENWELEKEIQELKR

4H1449-bN = biological target: T55, 4H1449-bN
T55 chain: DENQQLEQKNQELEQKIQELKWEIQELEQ

4H626-bN = biological target: T56, 4H626-bN
T56 chain: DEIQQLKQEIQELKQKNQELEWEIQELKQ

4H3613-bN = biological target: T57, 4H3613-bN
T57 chain: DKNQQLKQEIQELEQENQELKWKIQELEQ

4H3162-bN = biological target: T58, 4H3162-bN
T58 chain: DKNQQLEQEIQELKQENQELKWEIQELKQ

4H3497-bN = biological target: T59, 4H3497-bN
T59 chain: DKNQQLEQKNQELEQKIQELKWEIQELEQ

4H3175-bN = biological target: T60, 4H3175-bN
T60 chain: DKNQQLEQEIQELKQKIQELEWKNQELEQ

4H2697-bH = biological target: T61, 4H2697-bH
T61 chain: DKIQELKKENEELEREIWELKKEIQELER

4H3858-bN = biological target: T62, 4H3858-bN
T62 chain: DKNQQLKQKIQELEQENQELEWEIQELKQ

4H570-bN = biological target: T63, 4H570-bN
T63 chain: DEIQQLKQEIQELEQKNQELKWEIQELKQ

4H3462-bN = biological target: T64, 4H3462-bN
T64 chain: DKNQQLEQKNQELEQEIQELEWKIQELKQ

4H3277-bN = biological target: T65, 4H3277-bN
T65 chain: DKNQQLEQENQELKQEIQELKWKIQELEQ

P9A = biological target: T66, P9A
T66 chain: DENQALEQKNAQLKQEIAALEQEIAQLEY

P2A = biological target: T67, P2A
T67 chain: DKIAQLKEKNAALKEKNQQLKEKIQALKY

P6A = biological target: T68, P6A
T68 chain: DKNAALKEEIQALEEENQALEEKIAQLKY

P5A = biological target: T69, P5A
T69 chain: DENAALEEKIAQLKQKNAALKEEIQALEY

P7A = biological target: T70, P7A
T70 chain: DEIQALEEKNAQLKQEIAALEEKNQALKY

P4A = biological target: T71, P4A
T71 chain: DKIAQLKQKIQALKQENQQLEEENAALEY

P3A = biological target: T72, P3A
T72 chain: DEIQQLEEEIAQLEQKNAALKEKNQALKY

P8A = biological target: T73, P8A
T73 chain: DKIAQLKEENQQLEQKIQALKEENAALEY

interaction score (4H454-bN): -2.08 | interaction score (4H883-bN): -1.12 | interaction score (4H72-bN): -2.24 | interaction score (4H338-bN): -1.14 | interaction score (4H3782-bN): -0.997 | interaction score (4H953-bN): -1.45 | interaction score (4H607-bN): -0.581 | interaction score (4H967-bN): -2.19 | interaction score (4H687-bN): -2.77 | interaction score (4H3354-bN): -0.593 | interaction score (4H754-bN): -0.979 | interaction score (4H717-bN): -0.903 | interaction score (4H918-bN): -1.19 | interaction score (4H797-bN): -0.638 | interaction score (4H331-bN): -2.02 | interaction score (4H3855-bN): -1.23 | interaction score (4H568-bN): -2.82 | interaction score (P9SHb): -0.815 | interaction score (4H3185-bN): -1.05 | interaction score (4H908-bN): -0.952 | interaction score (4H3427-bN): -0.99 | interaction score (P4mS): -0.366 | interaction score (4H4001-bN): -1.46
Binder: DKNQQLEQEIQELKQKNQELEWEIQELEQ [4H3185-bN]

interaction score (4H2915-bH): 0.816 | interaction score (4H2839-bH): 0.582 | interaction score (4H2717-bH): 0.113 | interaction score (4H348-bH): -1.35 | interaction score (4H2223-bH): -0.882 | interaction score (4H2438-bH): -0.678 | interaction score (4H477-bH): -0.907 | interaction score (4H492-bH): -0.847 | interaction score (4H319-bH): -0.374 | interaction score (4H2588-bH): 0.461 | interaction score (4H2473-bH): 0.446 | interaction score (4H741-bH): 0.0741 | interaction score (4H2503-bH): 1.19 | interaction score (4H40-bH): -1.6 | interaction score (4H2692-bH): 0.736 | interaction score (4H3057-bH): 0.455 | interaction score (4H3277-bH): 0.0226
Binder: DKIQELEKENEELERKIWELKKKNQELER [4H2223-bH]

interaction score (4H72-bN): -2.48 | interaction score (4H1899-bN): -1.32 | interaction score (4H3926-bN): 1.21 | interaction score (4H3298-bN): -0.763 | interaction score (4H3817-bN): -0.749 | interaction score (4H1373-bN): -0.169 | interaction score (4H850-bN): -0.952 | interaction score (4H1710-bN): -0.292 | interaction score (4H3974-bN): -0.592 | interaction score (4H591-bN): -0.619 | interaction score (4H1544-bN): -0.522 | interaction score (4H906-bN): -1.37 | interaction score (4H3628-bN): -0.846 | interaction score (4H1985-bN): -1.63 | interaction score (4H338-bH): -0.758 | interaction score (4H1449-bN): -0.869 | interaction score (4H626-bN): -0.375 | interaction score (4H3613-bN): 1.13 | interaction score (4H3162-bN): -0.675 | interaction score (4H3497-bN): -1.41 | interaction score (4H3175-bN): -0.941 | interaction score (4H2697-bH): -2.86 | interaction score (4H3858-bN): 0.337 | interaction score (4H570-bN): -1.29 | interaction score (4H3462-bN): -0.946 | interaction score (4H3277-bN): -1.18
Binder: DENQQLEQKIQELKQENQELKWKIQELEQ [4H1373-bN]

interaction score (P9A): -0.481 | interaction score (P2A): -1.07 | interaction score (P6A): -0.59 | interaction score (P5A): -1.27 | interaction score (P7A): -2.38 | interaction score (P4A): -1.63 | interaction score (P3A): -1.21 | interaction score (P8A): -0.85
Binder: DKIAQLKEKNAALKEKNQQLKEKIQALKY [P2A]
